# Patent publication US20160194399A1
# B1: Anti-CD3ε antibody SP34 (antibody, V domains shown)
# VH: EVQLVESGGGLVQPKGSLKLSCAASGFTFNTYAMNWVRQAPGKGLEWVARIRSKYNNYATYYADSVKDRFTISRDDSQSILYLQMNNLKTEDTAMYYCVRHGNFGNSYVSWFAYWGQGTLVTVSA
# VL: QAVVTQESALTTSPGETVTLTCRSSTGAVTTSNYANWVQEKPDHLFTGLIGGTNKRAPGVPARFSGSLIGDKAALTITGAQTEDEAIYFCALWYSNLWVFGGGTKLTVL
# Assays:
# [1] = target: SP34-binding peptide 15253; assay: flow cytometry on peptide-displaying E. coli, 1 nM SP34-dylight-488 with 100 nM isotype control, normalised to peptide expression (yPet-Mona)
# [2] = target: SP34-binding peptide 15253; assay: flow cytometry on peptide-displaying E. coli, 10 nM SP34-dylight-488 with 100 nM isotype control, normalised to peptide expression (yPet-Mona)
# [3] = target: SP34-binding peptide 15253; assay: flow cytometry on peptide-displaying E. coli, 0.1 nM SP34-dylight-488 with 100 nM isotype control, normalised to peptide expression (yPet-Mona)
# [4] = target: SP34-binding peptide 15253; assay: flow cytometry on peptide-displaying E. coli, 100 nM SP34-dylight-488 with 100 nM isotype control, normalised to peptide expression (yPet-Mona)
# [5] = target: SP34-binding peptide 15253; assay: flow cytometry on peptide-displaying E. coli, 1 nM SP34-dylight-488 with 100 nM free human CD3ε as competitor, normalised to peptide expression (yPet-Mona)
binder,measurement,setting,value
B1,expression normalized binding,[1],0.68
same,expression normalized binding,[2],0.98
same,expression normalized binding,[3],0.55
same,expression normalized binding,[4],2.53
same,expression normalized binding,[5],0.53
